Assay in all cases: A340 NADH formation, steady state, Michaelis-Menten fit
Substrate in data set [1]: CC(C)[C@H](C(=O)O)[C@@H](O)C(=O)O
Format: biochemical, Bacillus subtilis. Particulars: 40 °C, 50 mM HEPES pH 8.0, 100 mM KCl, 5 mM MgCl2, 5 mM NAD+ fixed, 40.0 °C. The text has this: (§1) A340 NADH formation, steady state, Michaelis-Menten fit on B. subtilis IPMDH

Substrate in data set [2]: NC(=O)c1ccc[n+]([C@@H]2O[C@H](COP(=O)(O)OP(=O)(O)OC[C@H]3O[C@@H](n4cnc5c(N)ncnc54)[C@H](O)[C@@H]3O)[C@@H](O)[C@H]2O)c1
Format: biochemical, Bacillus subtilis. Particulars: 25 °C, 50 mM HEPES pH 8.0, 100 mM KCl, 5 mM MgCl2, 0.2 mM D-3-IPM fixed, 25.0 °C, varied: cofactor.
Description: as §1

Substrate in data set [3]: CC(C)[C@H](C(=O)O)[C@@H](O)C(=O)O
Format: biochemical, Saccharomyces cerevisiae. Particulars: 40 °C, 50 mM HEPES pH 8.0, 100 mM KCl, 5 mM MgCl2, 5 mM NAD+ fixed, 40.0 °C. The text has this: (§2) A340 NADH formation, steady state, Michaelis-Menten fit on S. cerevisiae IPMDH

Substrate in data set [4]: NC(=O)c1ccc[n+]([C@@H]2O[C@H](COP(=O)(O)OP(=O)(O)OC[C@H]3O[C@@H](n4cnc5c(N)ncnc54)[C@H](O)[C@@H]3O)[C@@H](O)[C@H]2O)c1
In kind it is biochemical, Saccharomyces cerevisiae. Particulars: 25 °C, 50 mM HEPES pH 8.0, 100 mM KCl, 5 mM MgCl2, 0.2 mM D-3-IPM fixed, 25.0 °C, varied: cofactor.
Description: as §2

Substrate in data set [5]: CC(C)[C@H](C(=O)O)[C@@H](O)C(=O)O
Format: biochemical, Thermus thermophilus. Particulars: 40 °C, 50 mM HEPES pH 8.0, 100 mM KCl, 5 mM MgCl2, 5 mM NAD+ fixed, 40.0 °C. An excerpt:
(§3) A340 NADH formation, steady state, Michaelis-Menten fit on T. thermophilus IPMDH

Substrate in data set [6]: NC(=O)c1ccc[n+]([C@@H]2O[C@H](COP(=O)(O)OP(=O)(O)OC[C@H]3O[C@@H](n4cnc5c(N)ncnc54)[C@H](O)[C@@H]3O)[C@@H](O)[C@H]2O)c1
In kind it is biochemical, Thermus thermophilus. Conditions: 25 °C, 50 mM HEPES pH 8.0, 100 mM KCl, 5 mM MgCl2, 0.2 mM D-3-IPM fixed, 25.0 °C, varied: cofactor.
Description: as §3

B1: B. subtilis IPMDH (Bacillus subtilis subsp. subtilis str. 168) (protein)
chain: MKKRIALLPGDGIGPEVLESATDVLKSVAERFNHEFEFEYGLIGGAAIDEHHNPLPEETVAACKNADAILLGAVGGPKWDQNPSELRPEKGLLSIRKQLDLFANLRPVKVFESLSDASPLKKEYIDNVDFVIVRELTGGLYFGQPSKRYVNTEGEQEAVDTLFYKRTEIERVIREGFKMAAARKGKVTSVDKANVLESSRLWREVAEDVAQEFPDVKLEHMLVDNAAMQLIYAPNQFDVVVTENMFGDILSDEASMLTGSLGMLPSASLSSSGLHLFEPVHGSAPDIAGKGMANPFAAILSAAMLLRTSFGLEEEAKAVEDAVNKVLASGKRTRDLARSEEFSSTQAITEEVKAAIMSENTISNV
notes: recombinant from E. coli Rosetta2 (DE3), pET21c(+) NdeI-BamHI, purified by HiTrap-Q, HiTrap-Butyl and ResourceQ; no tag mentioned
On to B1, for which, in data set [1], the Km worked out at 0.78 ± 0.11 µM and the kcat is 9.4 ± 0.2 s⁻¹. Further, in data set [2], the Michaelis-Menten constant (Km) worked out at 110 ± 10 µM and the kcat was determined as 2.8 ± 0.1 s⁻¹.

B2: S. cerevisiae IPMDH (Saccharomyces cerevisiae S288C) (protein)
chain: MSAPKKIVVLPGDHVGQEITAEAIKVLKAISDVRSNVKFDFENHLIGGAAIDATGVPLPDEALEASKKADAVLLGAVGGPKWGTGSVRPEQGLLKIRKELQLYANLRPCNFASDSLLDLSPIKPQFAKGTDFVVVRELVGGIYFGKRKEDDGDGVAWDSEQYTVPEVQRITRMAAFMALQHEPPLPIWSLDKANVLASSRLWRKTVEETIKNEFPTLKVQHQLIDSAAMILVKNPTHLNGIIITSNMFGDIISDEASVIPGSLGLLPSASLASLPDKNTAFGLYEPCHGSAPDLPKNKVNPIATILSAAMMLKLSLNLPEEGKAIEDAVKKVLDAGIRTGDLGGSNSTTEVGDAVAEEVKKILA
notes: as for B1
For the protein B2, the Km in data set [3] came to 4.5 ± 0.7 µM; in data set [4] it was 130 ± 10 µM. Also, the kcat in data set [3] turned out to be 20 ± 1 s⁻¹; in data set [4], 5.1 ± 0.1 s⁻¹.

B3: T. thermophilus IPMDH (Thermus thermophilus HB8) (protein)
chain: MKVAVLPGDGIGPEVTEAALKVLRALDEAEGLGLAYEVFPFGGAAIDAFGEPFPEPTRKGVEEAEAVLLGSVGGPKWDGLPRKIRPETGLLSLRKSQDLFANLRPAKVFPGLERLSPLKEEIARGVDVLIVRELTGGIYFGEPRGMSEAEAWNTERYSKPEVERVARVAFEAARKRRKHVVSVDKANVLEVGEFWRKTVEEVGRGYPDVALEHQYVDAMAMHLVRSPARFDVVVTGNIFGDILSDLASVLPGSLGLLPSASLGRGTPVFEPVHGSAPDIAGKGIANPTAAILSAAMMLEHAFGLVELARKVEDAVAKALLETPPPDLGGSAGTEAFTATVLRHLA
notes: extant thermophilic wild type; homodimer
Take B3: the Michaelis constant (Km) in data set [5] turned out to be 2.3 ± 0.8 µM; in data set [6] it was 2.2 ± 0.3 µM. Further, the figures for the kcat in data set [5] and in data set [6] were 2.4 ± 0.1 s⁻¹ and 0.37 ± 0.01 s⁻¹, respectively.

The term Km denotes the substrate concentration at which the rate is half of its maximum. Broadly, the kcat is the maximal rate divided by the concentration of active sites.

For the origin of these results see publication PMC7511310, “Ancestral sequence reconstruction produces thermally stable enzymes with mesophilic enzyme-like catalytic properties” (Scientific Reports, 2020).
